Experiment [1] deals with glycomyoglobin containing β-GlcNAc-serine at position 4 (Gly4TAG mutant myoglobin, C-terminal His6 tag) (UniProt P02185). Kind of experiment: ELISA-like assay, 200 ng immobilized myoglobin, biotinylated BSII, streptavidin-alkaline phosphatase, absorbance at 405 nm; reference: wild-type myoglobin.
Experiment [2] has as its target glycomyoglobin containing GalNAc-α-threonine at position 4 (myoglobin 4TAG mutant, C-terminal 6x His tag) (UniProt P02185). Nature of the experiment: enzyme-linked lectin-binding assay (ELLA), immobilized myoglobin samples, biotinylated lectin, streptavidin-alkaline phosphatase, pNPP at 405 nm; reference: equivalent concentrations of tyrosine-myoglobin.

Sequence of glycomyoglobin containing GalNAc-α-threonine at position 4 (myoglobin 4TAG mutant, C-terminal 6x His tag) (P02185 other isoform, or with tags, fused parts or gaps mutant): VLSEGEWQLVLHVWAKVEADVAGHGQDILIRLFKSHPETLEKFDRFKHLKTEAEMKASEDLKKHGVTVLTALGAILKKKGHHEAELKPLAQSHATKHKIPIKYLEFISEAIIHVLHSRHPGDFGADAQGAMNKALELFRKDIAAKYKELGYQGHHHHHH
Sequence of glycomyoglobin containing β-GlcNAc-serine at position 4 (Gly4TAG mutant myoglobin, C-terminal His6 tag) (P02185 other isoform, or with tags, fused parts or gaps mutant): as above
Sequence of Vicia Villosa lectin (VVL), biotinylated conjugate (P56625 whole entry): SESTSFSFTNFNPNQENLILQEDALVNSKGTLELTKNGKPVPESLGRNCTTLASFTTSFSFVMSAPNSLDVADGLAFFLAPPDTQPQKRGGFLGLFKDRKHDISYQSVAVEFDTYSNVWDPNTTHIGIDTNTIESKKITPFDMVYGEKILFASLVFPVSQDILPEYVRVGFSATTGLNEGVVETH

Consider “Bandeiraea simplicifolia II (BSII) lectin, biotinylated”, for which the fold signal versus wild-type myoglobin in experiment [1] is over 200 fold.

As for “Dolichos Biflorus lectin (DBL), biotinylated conjugate (from UniProt P05045 23-275)”, the fold signal increase versus tyrosine-myoglobin in experiment [2] came out at 5 fold.

For “Vicia Villosa lectin (VVL), biotinylated conjugate (from UniProt P56625 1-185)”, the fold signal increase versus tyrosine-myoglobin in experiment [2] is 10 fold.
